According to patent publication US6436654B1, “Methods for identifying compounds that modulate HIF-1α” (Pharmacia & Upjohn AB, priority 1998, dated 2002):

Columns and labels:
[1] = system: GAL4 responsive reporter plasmid; assay: Cotransfection of GAL4-HIF-1α fusion proteins with GAL4 responsive luciferase reporter; format: cell-based, simian; settings: for GAL4 reporter transcriptional activity (in words): with or without CBP / SRC-1; for stimulation of GAL4 reporter activity by coexpressed CBP / stimulation of GAL4 reporter activity by coexpressed SRC-1: hypoxic conditions, vs hypoxia without exogenous coactivator
Text: To analyze functional activities of HIF-1α independently of the endogenous DNA binding and dimerization domains and the Arnt partner, we next fused HIF-1α to the heterologous DNA binding domain of GAL4. Functional activity of the fusion protein was monitored in COS7 cells by a cotransfection assay using a reporter gene construct carrying five GAL4 DNA binding elements in front of thymidine kinase promoter and the luciferase gene. Six hours after transfection media was changed, and cells were either left uninduced or exposed to 1% oxygen for 30 h prior to harvest. In the presence of either empty expression vector or a vector expressing the minimal GAL4 DNA binding domain, reporter gene activity was unaltered by reduced oxygen levels. […] The GAL4 DNA binding domain is known to harbor an NLS motif capable of taking fusion proteins to the nucleus (Ma and Ptashne (1987) Cell 51, 113-119). We therefore used antibodies directed against the DNA binding domain of GAL4 to examine in both normoxic and hypoxic cells the intracellular localization of the GAL4-HIF-1α fusion protein by immunofluorescence.
Transcriptional activity of GFP and GAL4 fusion constructs was analyzed in a cotransfection assay where effector plasmids (0.2 μg/30-mm dish) together with a reporter gene (1.5 μg/30-mm dish) were introduced into COS7 or HeLa cells. The reporter plasmid encoded firefly luciferase gene under the control of thymidine kinase minimal promoter and either five or three copies of GAL4 or HIF-responsive elements, respectively.

GST/Ref-1 = GST/Ref-1 (Homo sapiens, UniProt P27695); assay: Pull-down of [35S]methionine-labeled GAL4/HIF proteins with GST/Ref-1; format: binding; settings: presence or absence of diamide
Protocol: The precise mechanism by which Ref-1 activates HIF-1α is not known. […] To further investigate whether Ref-1 could interact with HIF-1α, we tried to trap the interaction by using a crosslinking reagent such as diamide, which oxidizes cysteine sulfhydryls to disulfides. A series of experiments was performed with GST-tagged purified Ref-1. [^35S]methionine-labeled in vitro translated GAL4/HIF 1-826 was incubated with GST/Ref-1 in the presence or absence of diamide.
Next, we tried a series of pull-down experiments with [^35S]methionine-labeled in vitro translated GAL4/HIF […] and GAL4/HIF 531-584. […] An interaction between GAL4/HIF […] and GST/Ref-1 was also detected, and this interaction was enhanced in the presence of diamide. In excellent agreement with this observation the C-TAD contains two cysteine residues. […] Immunoblot analysis verified that the input concentrations of GST/Ref-1 or GST alone were similar.

GST/Ref-1, sequence (P27695 whole entry, species assumed, the tested form may be a part): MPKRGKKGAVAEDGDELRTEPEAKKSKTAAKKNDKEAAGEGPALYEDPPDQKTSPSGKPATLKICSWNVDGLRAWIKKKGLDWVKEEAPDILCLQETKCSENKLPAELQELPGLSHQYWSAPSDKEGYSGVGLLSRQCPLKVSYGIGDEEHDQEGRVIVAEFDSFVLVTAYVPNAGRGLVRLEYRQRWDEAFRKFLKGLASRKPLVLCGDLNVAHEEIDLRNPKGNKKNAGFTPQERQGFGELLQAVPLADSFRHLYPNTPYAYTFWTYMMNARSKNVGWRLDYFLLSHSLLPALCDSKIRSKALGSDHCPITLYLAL

Molecule	regulation by Ref-1 and the coactivators (in words) ([1]; Ref-1, CBP and SRC-1)	GAL4 reporter transcriptional activity (in words) [1]	hypoxia-dependent activation of GAL4 reporter gene activity ([1]; 1% O2 vs normoxia, no exogenous coactivator)	stimulation of GAL4 reporter activity by coexpressed CBP [1] [fold]	stimulation of GAL4 reporter activity by coexpressed SRC-1 [1] [fold]	binding to GST/Ref-1 (in words) (GST/Ref-1)	stimulation of hypoxia-dependent activation response by p300ΔHAT ([1]; absence of SRC-1, hypoxia) [fold]
GAL4/HIF 776-813: GAL4 fusion of C-terminal transactivation domain lacking 13 most carboxy-terminal amino acids (SEQ ID NO: 15) (protein) MKLLSSIEQACDICRLKKLKCSKEKPKCAKCLKNNWECRYSPKTKRSPLTRAHLTEVESRLERLEQLFLLIFPREDLDMILKMDSLQDIKALLTGLFVQDNVNKDAVTDRLASVETDMPLTLRQHRISATSSSEESSNKGQRQLTVSSDLACRLLGQSMDESGLPQLTSYDCEVNAPIQGSRNLL	showed no regulation by Ref-1 and the coactivators	completely abrogated	–	–	–	–	–
GAL4/HIF 776-826: GAL4 fusion containing the carboxy-terminal transactivation domain of HIF-1α (SEQ ID NO: 14) (protein) MKLLSSIEQACDICRLKKLKCSKEKPKCAKCLKNNWECRYSPKTKRSPLTRAHLTEVESRLERLEQLFLLIFPREDLDMILKMDSLQDIKALLTGLFVQDNVNKDAVTDRLASVETDMPLTLRQHRISATSSSEESSNKGQRQLTVSSDLACRLLGQSMDESGLPQLTSYDCEVNAPIQGSRNLLQGEELLRALDQVN	–	–	about 2 fold	29	17	detected	–
GAL4/HIF 531-584: GAL4 chimeric protein spanning the N-terminal transactivation domain of HIF-1α (SEQ ID NO: 13) (protein) MKLLSSIEQACDICRLKKLKCSKEKPKCAKCLKNNWECRYSPKTKRSPLTRAHLTEVESRLERLEQLFLLIFPREDLDMILKMDSLQDIKALLTGLFVQDNVNKDAVTDRLASVETDMPLTLRQHRISATSSSEESSNKGQRQLTVSFKLELVEKLFAEDTEAKNPFSTQDTDLDLEMLAPYIPMDDDFQLRSFDQLSPLE	–	–	–	11	1.5	bound GST/Ref-1	2
GAL4/HIF 526-641: GAL4 fusion with N-terminal transactivation domain and proposed inhibitory sequence (protein) MKLLSSIEQACDICRLKKLKCSKEKPKCAKCLKNNWECRYSPKTKRSPLTRAHLTEVESRLERLEQLFLLIFPREDLDMILKMDSLQDIKALLTGLFVQDNVNKDAVTDRLASVETDMPLTLRQHRISATSSSEESSNKGQRQLTVSDMVNEFKLELVEKLFAEDTEAKNPFSTQDTDLDLEMLAPYIPMDDDFQLRSFDQLSPLESSSASPESASPQSTVTVFQQTQIQEPTANATTTTATTDELKTVTKDRMEDIKILIAS	–	complete abrogation of the effect of CBP and SRC-1	–	–	–	–	–
